Entries after “also recorded” stand apart in the source; their conditions may differ. Square brackets hold non-standard residues; d marks the D form. Ends that are not written are not given here. * marks the point of attachment. Nle = CCCC[C@H](N)C(=O)O; For = O=C*
Tests used:
Format in all cases: physicochemical
[1] = External observation of peptide sample solutions (presence or absence of white turbidity)
Description: (§1) Peptide 1, Peptide 2, and Peptide 3 (100 μg each) were separately added to 410 mM arginine solutions (pH 11) to adjust each total amount to 700 μL. Molarities in these solutions are 94 μM (Peptide 1), 99 μM (Peptide 2), and 161 μM (Peptide 3). […] Then, 200 μL each of the sample solutions was filtered with a filter Millex (registered trademark)-GV (trade name, manufactured by Nihon Millipore) with a pore size of 0.22 μm. The sample solutions before filtration and the sample solutions after filtration were respectively analyzed by reverse-phase HPLC. Peak area percentages were determined from the peak area values of the peptides before and after filtration and used as elution rates. HPLC analytical conditions are shown below.
(§2) For a comparative example, Peptide 1, Peptide 2, and Peptide 3 were separately dissolved in each of water and dimethylsulfoxide (DMSO) to prepare samples having a peptide concentration of 94 μM, 99 μM, or 161 μM, which were studied in the same way as above.
(§3) Arginine, lysine, and histidine were separately dissolved in water to prepare 410 mM arginine solution, 489 mM lysine solution, and 90 mM histidine solution. An aqueous solution of sodium hydroxide and hydrochloric acid were added to these solutions to adjust the pH of the aqueous solutions of lysine and histidine to 8, 9, 10, and 11, and the pH of the aqueous solution of arginine to 8, 8.5, 9, 9.5, 10, and 11. Subsequently, Peptide 1 was added to these aqueous solutions to prepare 94 μM Peptide 1 solutions. […] Then, 200 μL each of the sample solutions was filtered with a filter Millex (registered trademark)-GV (trade name, manufactured by Nihon Millipore) with a pore size of 0.22 μm. The sample solutions before filtration and the sample solutions after filtration were respectively analyzed by reverse-phase HPLC. Peak area percentages were determined from the peak area values of Peptide 1 before and after filtration and used as elution rates. HPLC analytical conditions were the same as the conditions described in Example 1.
(§4) Imidazole was dissolved in water to prepare 1 mM imidazole solution. pH was adjusted to 8, 8.5, and 9 by adding an appropriate amount of hydrochloric acid to this solution. Subsequently, Peptide 1 was added to these imidazole solutions to prepare 94 μM Peptide 1 solutions. […] Then, 200 μL each of the sample solutions was filtered with a filter Millex (registered trademark)-GV (trade name, manufactured by Nihon Millipore) with a pore size of 0.22 μm. The sample solutions before filtration and the sample solutions after filtration were respectively analyzed by reverse-phase HPLC. Peak area percentages were determined from the peak area values of Peptide 1 before and after filtration and used as elution rates. HPLC analytical conditions were the same as the conditions described in Example 1.
(§5) Disodium hydrogen phosphate, sodium dihydrogen citrate, sodium ascorbate, and imidazole were separately dissolved in water to prepare their respective aqueous solutions with pH 9 at concentrations described in Table 4. pH adjustment was performed with hydrochloric acid and an aqueous solution of sodium hydroxide. The above-described aqueous solutions were separately added to the weighed Peptide 1 to prepare 94 μM Peptide 1 solutions. […] These Peptide 1 solutions were compared with the Peptide 1 sample solutions using the respective aqueous solutions of disodium hydrogen phosphate, sodium dihydrogen citrate, and sodium ascorbate used as comparative controls. Subsequently, 200 μL each of the sample solutions was filtered with a filter Millex (registered trademark)-GV (trade name, manufactured by Nihon Millipore) with a pore size of 0.22 μm. The sample solutions before filtration and the sample solutions after filtration were respectively analyzed by reverse-phase HPLC. […]

[2] = Elution rate: reverse-phase HPLC peak area of the peptide after vs before 0.22 μm filtration
Description: as §1, §2
Column: Cosmosil 5C18-AR-300 (Manufactured by Nacalai Tesque, 4.6×150 mm)
(§6) Detection: ultraviolet and visible spectrophotometer (detection wavelength: 220 nm)
HPLC system: Alliance (manufactured by Waters, Japan)
Eluant A: 0.1% trifluoroacetic acid (hereinafter, TFA)/purified water
(§7) Eluant B: 0.1% TFA/acetonitrile
(§8) Concentration gradient: 0 min (Eluant B 20%)→25 min (Eluant B 70%)
as §3, §4
as §5, with “controls.” for “controls. Subsequently, 200 μL each of the sample solutions was filtered with a filter Millex (registered trademark)-GV (trade name, manufactured by Nihon Millipore) with a pore size of 0.22 μm. The sample solutions before filtration and the sample solutions after filtration were respectively analyzed by reverse-phase HPLC.”

[3] = Tc-99m labeling at room temperature, radiochemical purity by HPLC
Description: (§9) Peptide 1 was dissolved in the aqueous solution of arginine with pH 10 obtained in Example 2 to prepare 9.4 μM peptide/arginine solution. 25 μL of a solution of 10 mL of 0.01 M hydrochloric acid supplemented with 5 mg of stannous chloride solution was added to 700 μL of the peptide/arginine solution, and 0.6 to 1.0 GBq of Tc-99m-sodium pertechnetate (hereinafter, 99 mTcO4^−) solution was quickly added thereto to adjust the total amount to 1 mL. After the labeling procedure, the peptide concentration was diluted to 6.6 μM. After shaking for several seconds, the solution was reacted at room temperature. A portion thereof was taken on 10 minutes and 90 minutes after the labeling procedure to determine each Tc-99m labeling rate by HPLC and TLC. The HPLC and TLC analyses were performed under conditions described below.
(§10) For comparative controls, Peptide 1 was dissolved in dimethylsulfoxide (DMSO) and then diluted 10-fold with 100 mM phosphate buffer solution (hereinafter, PB) with pH 10 to prepare a peptide/DMSO/PB solution with the final peptide concentration of 9.4 μM. Alternatively, Peptide 1 was dissolved in PB to prepare a peptide/PB solution with the final peptide concentration of 9.4 μM. These solutions were labeled in the same way as in the peptide/arginine solution to determine each Tc-99m labeling rate by HPLC and TLC. After the labeling procedure, the peptide concentration was diluted to 6.6 μM.
Column: Cosmosil 5C18-AR-300 (manufactured by Nacalai Tesque, 4.6×150 mm)
as §6
Radioactivity detector: STEFFI NaI scintillator (manufactured by Raytest)
Eluant A: 0.1% TFA/purified water
as §7, §8

[4] = Tc-99m labeling at room temperature, radiochemical purity by TLC
Description: as §9, §10
Plate: Silica Gel 60F254 (manufactured by Merck)
Developing solvent: 28% ammonia water/acetonitrile=½
Radioactivity detector: Gita NaI scintillator (manufactured by Raytest)
12.5, 25, and 50 mg of arginine was weighed, then dissolved in water, and adjusted with hydrochloric acid to pH 10 to adjust each total amount to 700 μL. Molarities in these solutions are 102.5 mM, 205 mM, and 410 mM, respectively. Peptide 1 was dissolved in these aqueous solutions of arginine to prepare respective 9.4 μM peptide/arginine solutions. 25 μL of a solution of 10 mL of 0.01 M hydrochloric acid supplemented with 5 mg of stannous chloride solution was added to each of the peptide/arginine solutions, and 0.6 to 1.0 GBq of 99 mTcO4^− solution was quickly added thereto to adjust each total amount to 1 mL. After shaking for several seconds, the solutions were reacted at room temperature. A portion thereof was taken on 30 minutes, 90 minutes, 180 minutes, 360 minutes, 24 hours, and 30 hours after the labeling procedure to determine each radiochemical purity by TLC analysis under the conditions described in Example 5.

[5] = 410 mM arginine solution, pH 11, peptide 94/99/161 μM
[6] = solvent DMSO, peptide 94/99/161 μM
[7] = solvent water, peptide 94 μM (Peptide 1), 99 μM (Peptide 2), 161 μM (Peptide 3)
[8] = 1 mM imidazole, pH 8, 94 μM peptide
[9] = 90 mM histidine, pH 9, 94 μM peptide
[10] = 100 mM disodium hydrogen phosphate, pH 9, 94 μM peptide
[11] = 410 mM arginine, pH 9, 94 μM peptide
[12] = 489 mM lysine, pH 9, 94 μM peptide
[13] = aqueous solutions of arginine, lysine and histidine at pH 9 or more
[14] = Tc-99m labeling in DMSO/phosphate buffer solution pH 10, room temperature, 10 minutes
[15] = Tc-99m labeling in DMSO/phosphate buffer solution pH 10, room temperature, 90 minutes
[16] = Tc-99m labeling in phosphate buffer solution pH 10, room temperature, 10 minutes

In the case of “formyl-Met-Leu-Phe-Lys-ε(-Gly-Asp-Ac—S-Bzl) (For-MLFKGD; not fully specified (C-terminus); printed as formyl-Met-Leu-Phe-Lys-ε(-Gly-Asp-Ac—S-Bzl); also: Gly-Asp attached through Lys epsilon-amino (branch)) [Peptide 3]”, the Appearance [1, 5] is reported as “Colorless,”, the Appearance [1, 6] is reported as “Colorless,” and the Appearance [1, 7] is reported as “Whitish”. The Elution rate [2, 5] was 101.3% and the Elution rate [2, 6] was 108.5%.
With “formyl-Nle-Leu-Phe-Nle-Tyr-Lys(NH2)-ε(-Ser-D-Arg-Asp-Cys-Asp-Asp) (For-[Nle]LF[Nle]YKS[dR]DCDD; also: Lys(NH2): Lys α-carboxamide, Ser-D-Arg-Asp-Cys-Asp-Asp branch on Lys ε-amine) [Peptide 1]” the Appearance [1, 8] was “colorless and transparent”, the Appearance ([1]; 1 mM imidazole, pH 8.5, 94 μM peptide) was “colorless and transparent” and the Appearance ([1]; 1 mM imidazole, pH 9, 94 μM peptide) was “colorless and transparent”. For the same substance, the Appearance [1, 9] was “colorless, transparent”, the Appearance [1, 10] was “colorless, transparent” and the Appearance ([1]; 243 mM sodium dihydrogen citrate, pH 9, 94 μM peptide) was “white turbidity; also recorded: Whitish”. For the same substance, the Appearance ([1]; 401 mM sodium ascorbate, pH 9, 94 μM peptide) was “white turbidity; also recorded: Whitish”, the Appearance [1, 5] was “Colorless,” and the Appearance ([1]; 410 mM arginine, pH 8, 94 μM peptide) was “Evident white turbidity”. The Appearance [1, 11] was “colorless, transparent”, the Appearance [1, 12] was “colorless, transparent” and the Appearance ([1]; aqueous solutions of arginine, lysine and histidine at pH 8.5 or less) was “Weak white turbidity”. The Appearance [1, 13] was “colorless, transparent”, the Appearance [1, 6] was “Colorless,” and the Appearance [1, 7] was “Whitish”. It also gave an Elution rate [2, 8] of 64.9%, an Elution rate [2, 9] of 85.9% and an Elution rate ([2]; 90 mM histidine, pH 10, 94 μM peptide) of 90.7%. The Elution rate ([2]; 90 mM histidine, pH 11, 94 μM peptide) was 96.7%, the Elution rate [2, 10] was 53.8% and the Elution rate [2, 5] was 100.8%. For the same substance, the Elution rate ([2]; 410 mM arginine, pH 8.5, 94 μM peptide) was 43.8%, the Elution rate [2, 11] was 93.8% and the Elution rate ([2]; 410 mM arginine, pH 9.5, 94 μM peptide) was 95.4%. It also gave an Elution rate ([2]; 410 mM arginine, pH 10, 94 μM peptide) of 98.8%, an Elution rate [2, 12] of 89.0% and an Elution rate ([2]; 489 mM lysine, pH 10, 94 μM peptide) of 83.6%. For the same substance, the Elution rate ([2]; 489 mM lysine, pH 11, 94 μM peptide) was 85.9%, the Elution rate [2, 13] was at least 85% and the Elution rate [2, 6] was 98.6%. The “Radiochemical purity (HPLC)” value [3, 14] was 72.0%, the “Radiochemical purity (HPLC)” value [3, 15] was 75.4% and the “Radiochemical purity (HPLC)” value [3, 16] was 55.3%. The “Radiochemical purity (TLC)” value ([4]; 102.5 mM arginine pH 10, 30 minutes after labeling) was 93.3%, the “Radiochemical purity (TLC)” value ([4]; 102.5 mM arginine pH 10, 90 minutes after labeling) was 92.6% and the “Radiochemical purity (TLC)” value ([4]; 102.5 mM arginine pH 10, 180 minutes after labeling) was 92.6%. The “Radiochemical purity (TLC)” value ([4]; 102.5 mM arginine pH 10, 360 minutes after labeling) was 91.2%, the “Radiochemical purity (TLC)” value ([4]; 102.5 mM arginine pH 10, 24 hours after labeling) was 88.9% and the “Radiochemical purity (TLC)” value ([4]; 102.5 mM arginine pH 10, 30 hours after labeling) was 89.8%. For the same substance, the “Radiochemical purity (TLC)” value ([4]; 205 mM arginine pH 10, 30 minutes after labeling) was 92.0%, the “Radiochemical purity (TLC)” value ([4]; 205 mM arginine pH 10, 90 minutes after labeling) was 90.8% and the “Radiochemical purity (TLC)” value ([4]; 205 mM arginine pH 10, 180 minutes after labeling) was 89.7%. For the same substance, the “Radiochemical purity (TLC)” value ([4]; 205 mM arginine pH 10, 360 minutes after labeling) was 89.7%, the “Radiochemical purity (TLC)” value ([4]; 205 mM arginine pH 10, 24 hours after labeling) was 88.3% and the “Radiochemical purity (TLC)” value ([4]; 205 mM arginine pH 10, 30 hours after labeling) was 87.3%. For the same substance, the “Radiochemical purity (TLC)” value ([4]; 410 mM arginine pH 10 (Example 6), 30 minutes after labeling) was 91.6%, the “Radiochemical purity (TLC)” value ([4]; 410 mM arginine pH 10 (Example 6), 90 minutes after labeling) was 89.5% and the “Radiochemical purity (TLC)” value ([4]; 410 mM arginine pH 10 (Example 6), 180 minutes after labeling) was 87.1%. For the same substance, the “Radiochemical purity (TLC)” value ([4]; 410 mM arginine pH 10 (Example 6), 360 minutes after labeling) was 85.7%, the “Radiochemical purity (TLC)” value ([4]; 410 mM arginine pH 10 (Example 6), 24 hours after labeling) was 86.5% and the “Radiochemical purity (TLC)” value ([4]; 410 mM arginine pH 10 (Example 6), 30 hours after labeling) was 84.9%. For the same substance, the “Radiochemical purity (TLC)” value [4, 14] was 45.7%, the “Radiochemical purity (TLC)” value [4, 15] was 41.9% and the “Radiochemical purity (TLC)” value [4, 16] was 28.0%. For the same substance, the “Radiochemical purity (TLC)” value ([4]; Tc-99m labeling in phosphate buffer solution pH 10, room temperature, 90 minutes) was 33.6%.
In the case of “formyl-Nle-Leu-Phe-Nle-Tyr-Lys(NH2)-ε(-Ser-D-Arg-DTPA*) (For-[Nle]LF[Nle]YKS[dR]; not fully specified (C-terminus); also: Lys(NH2): Lys α-carboxamide, Ser-D-Arg branch on Lys ε-amine, DTPA* at end of Ser-D-Arg branch) [Peptide 2]”, the Appearance [1, 5] is reported as “Colorless,”, the Appearance [1, 6] is reported as “Colorless,” and the Appearance [1, 7] is reported as “Whitish”. It also gave an Elution rate [2, 5] of 102.8% and an Elution rate [2, 6] of 100.9%.

Source: patent publication US7854918B2, “Composition for medical use having improved water-solubility of peptide and metal-labeling efficiency and preparation for medical use comprising metal-labeled peptide” (Nihon Medi-Physics Co., Ltd., priority 2004, dated 2010)
